Measured values as given in the PETadex activity labels (doi:10.1128/aem.01698-25).

B1: unnamed (protein)
chain: MPILNRFAHFQLILCFLISNLVLNAQTGSFVYGDALPDAPELSARGSYAVGVRTLDFVNKGQADVLNSKNGIDPIYDRPLKVEVWYPAQLAEGAKETVVYDEVMGTAHDSLRPLTPITFKGRASRDAAPLTTDGSFPLLVVAHGYVGSRYLMTYLTENLASKGYVVVAIDHTDSTFRDASPFASTLVNRAKDISFVLNQTVNLGKAADNNFLAGLVDSENIGIIGYSMGGYGVLNVAGAGYSDGLVGFFSGMTGGSKAIVDLAMSNPDFPKVDPRIKAVVAFAPWGMERGIWDAEGLKGLKVPTFFIAGSQDDISGYEKGIKAIYTGAVNADRYLLTYENARHNVAPNPPPAESFEPGLHIDEYYRYAEPSWDERKINNVNQHFITAFLGIHLKQKDYSKFLELQENSNEKDWTGFKARSSTGMELLHDKPAP
B2: unnamed (protein)
chain: MKFRALLFSASLIAILFNGLTINTVNAQTNDFLYGDQLPDAPELSSRGEYKVGVKTVNLVNPNQVDILNSKEGNDPTYDRPITIEVWYPANVGDDAKTVVYDEVMGTRGDSLRPLTPFTFKGRAYRDATPKTGNKFPLVVVSHGYVGSRYLMTYLTENLASKGYIVAAIDHTDSTFKDANAFQSTLLNRPKDIRFVINEMEKMGAKGSKNNLEGVVDANNTAIIGYSMGGYGVLNVGGAGYSAGLAQFFTGMTGGSTAISVHTAGNAAYEKMIDARIKAIVAFAPWGMERGVWDAEGLKGLKTPTFFIAGSQDDISGYEKGIKAIYEGAVNADRYLLTYMNARHNVAPNPPPAEALAPGLHIDEYYRYAEPSWDQRKMNNINQHFVTAFIGKHLKNQDSTKFLEVQEDSNEKDWTGFKPRSSTGMELLHAQPAN

Substrate: pNP-C8
Assay: Proxy for plastic degradation [Absorbance @ 405nm]
Conditions: 4 °C

In order of rising “Proxy for plastic degradation” value:
1. B2  90%
2. B1  95%

Same assay, conditions: 10 °C

In order of falling “Proxy for plastic degradation” value:
1. B2  90%
2. B1  70%

Same assay, conditions: 20 °C

In order of rising “Proxy for plastic degradation” value:
1. B1  90%
2. B2  90%

Same assay, conditions: 30 °C

In order of rising “Proxy for plastic degradation” value:
1. B1  90%
2. B2  95%

Same assay, conditions: 40 °C

In order of rising “Proxy for plastic degradation” value:
1. B1  100%
2. B2  100%

Same assay, conditions: 50 °C

In order of falling “Proxy for plastic degradation” value:
1. B2  95%
2. B1  90%

Same assay, conditions: 60 °C

In order of falling “Proxy for plastic degradation” value:
1. B2  35%
2. B1  10%

Same assay, conditions: 70 °C

In order of falling “Proxy for plastic degradation” value:
1. B1  15%
2. B2  5%

Same assay, conditions: 80 °C

In order of falling “Proxy for plastic degradation” value:
1. B2  30%
2. B1  25%

Same assay, conditions: 90 °C

In order of rising “Proxy for plastic degradation” value:
1. B2  0%
2. B1  20%

Same assay, conditions: pH 3

In order of falling “Proxy for plastic degradation” value:
1. B1  0%
2. B2  0%

Same assay, conditions: pH 4

In order of falling “Proxy for plastic degradation” value:
1. B2  5%
2. B1  0%

Same assay, conditions: pH 5

In order of rising “Proxy for plastic degradation” value:
1. B1  0%
2. B2  55%

Same assay, conditions: pH 9

In order of rising “Proxy for plastic degradation” value:
1. B1  0%
2. B2  60%

Same assay, conditions: pH 9.2

In order of rising “Proxy for plastic degradation” value:
1. B1  0%
2. B2  80%

Same assay, conditions: pH 10.2

In order of falling “Proxy for plastic degradation” value:
1. B2  55%
2. B1  0%
